Measured values from patent EP4678655A1.
Several values for one entry are separate records, joined by “and”; a condition that tells them apart may be missing. Equal values may be shown once.

What was measured:
[1] = target: T1, hTregL1-his tryptic peptide 498-531 (human); assay: affinity-MS: tryptic antigen peptides eluted from antibody-CNBr column, LC-MS
T1 sequence (peptide): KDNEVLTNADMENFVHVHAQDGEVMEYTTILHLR

[2] = target: T2, hTregL1-his tryptic peptide 499-529 (human); assay: as above
T2 sequence (peptide): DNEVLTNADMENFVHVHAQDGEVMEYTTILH

[3] = target: T3, hTregL1-his tryptic peptide 499-531 (human); assay: as above
T3 sequence (peptide): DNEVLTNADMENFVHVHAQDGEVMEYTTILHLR

[4] = target: T4, hTregL1-his chymotryptic peptide 113-134 (human); assay: affinity-MS: chymotryptic antigen peptides eluted from antibody-CNBr column, LC-MS
T4 sequence (peptide, N-glycan at 116(N)): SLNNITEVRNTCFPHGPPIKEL

[5] = target: T5, hTregL1-his chymotryptic peptide 430-446 (human); assay: as above
T5 sequence (peptide): VTATCAHPESLKGQSIF

[6] = target: T6, hTregL1-his chymotryptic peptide 536-553 (human); assay: as above
T6 sequence (peptide): GHEGRYQCVITNHFGSTY

[7] = target: T7, hTregL1-his chymotryptic peptide 585-598 (human); assay: as above
T7 sequence (peptide): ECAATGHPNPQIAW

[8] = target: T8, hTregL1-his chymotryptic peptide 430-440 (human); assay: as above
T8 sequence (peptide): VTATCAHPESL

[9] = target: T9, hTregL1-his chymotryptic peptide 472-492 (human); assay: as above
T9 sequence (peptide): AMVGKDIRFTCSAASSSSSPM

[10] = target: T10, hTregL1-his chymotryptic peptide 529-535 (human); assay: as above
T10 sequence (peptide): HLRQVTF

[11] = target: T11, hTregL1-his chymotryptic peptide 624-636 (human); assay: as above
T11 sequence (peptide): FITDVKIDDAGVY

[12] = target: T12, hTregL1-his chymotryptic peptide 637-653 (human); assay: as above
T12 sequence (peptide, N-glycan at 650(N)): SCTAQNSAGSISANATL

[13] = target: T13, hTregL1-his chymotryptic peptide 447-471 (human); assay: as above
T13 sequence (peptide): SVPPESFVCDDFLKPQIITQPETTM

[14] = target: T14, hTregL1-his chymotryptic peptide 427-440 (human); assay: as above
T14 sequence (peptide): QAFVTATCAHPESL

[15] = target: T15, hTregL1-his chymotryptic peptide 270-280 (human); assay: as above
T15 sequence (peptide): SFCQKLHELVL

[16] = target: T16, hTregL1-his chymotryptic peptide 327-344 (human); assay: as above
T16 sequence (peptide): DLDHNEISGTIEDTSGAF

[17] = target: T17, hTregL1-his chymotryptic peptide 728-744 (human); assay: as above
T17 sequence (peptide): TCEMSNTLGTERAHSQL

[18] = target: T18, hTregL1-his chymotryptic peptide 402-416 (human); assay: as above
T18 sequence (peptide): HISSDSFLCDCQLKW

MS Area [1]: 7.66e+06 and 4.64e+06 and 4.1e+06
MS Area [2]: 1.21e+06 and 726000 and 442000
MS Area [3]: 1.9e+07 (2×) and 6.9e+06
MS Area [4]: 556000 and 544000
MS Area [5]: 1e+06 and 705000
MS Area [6]: 497000 and 295000
MS Area [7]: 766000 and 374000
MS Area [8]: 1.59e+07 and 1.18e+07
MS Area [9]: 407000 and 325000
MS Area [10]: 378000 and 312000
MS Area [11]: 473000 and 399000
MS Area [12]: 334000 and 207000
MS Area [13]: 1.62e+06 and 1.32e+06
MS Area [14]: 1.05e+06 and 554000
MS Area [15]: 459000 and 335000
MS Area [16]: 283000 and 298000
MS Area [17]: 335000 and 736000
MS Area [18]: 1.67e+07 and 7.24e+06
B1: GTC310-01-hlgG1 (antibody, human IgG1, kappa, V domains shown)
VH: EVQLLESGGGLVQPGGSLRLSCAASGFTFSNYAMSWVRQAPGKGLEWVSVISHGGGSTYYADSVKGRFTISRDNSKNTLYLQMNSLRAEDTAVYYCARVISNCHLGVCYYSNGMDVWGQGTLVTVSS
VL: QLVLTQPPSVSAAPGQRVSISCSGSSSNIGDNYVSWYQQVPGSAPKLLIYDNNKRPSGIPDRFSASKSGTSATLGITGLQTGDEADYYCATWDGSLSAGRVFGGGTKLTVLR
